B1: X-linked retinitis pigmentosa GTPase regulator (Homo sapiens), Q92834 (parent)
chain: MREPEELMPDSGAVFTFGKSKFAENNPGKFWFKNDVPVHLSCGDEHSAVVTGNNKLYMFGSNNWGQLGLGSKSAISKPTCVKALKPEKVKLAACGRNHTLVSTEGGNVYATGGNNEGQLGLGDTEERNTFHVISFFTSEHKIKQLSAGSNTSAALTEDGRLFMWGDNSEGQIGLKNVSNVCVPQQVTIGKPVSWISCGYYHSAFVTTDGELYVFGEPENGKLGLPNQLLGNHRTPQLVSEIPEKVIQVACGGEHTVVLTENAVYTFGLGQFGQLGLGTFLFETSEPKVIENIRDQTISYISCGENHTALITDIGLMYTFGDGRHGKLGLGLENFTNHFIPTLCSNFLRFIVKLVACGGCHMVVFAAPHRGVAKEIEFDEINDTCLSVATFLPYSSLTSGNVLQRTLSARMRRRERERSPDSFSMRRTLPPIEGTLGLSACFLPNSVFPRCSERNLQESVLSEQDLMQPEEPDYLLDEMTKEAEIDNSSTVESLGETTDILNMTHIMSLNSNEKSLKLSPVQKQKKQQTIGELTQDTALTENDDSDEYEEMSEMKEGKACKQHVSQGIFMTQPATTIEAFSDEEVGNDTGQVGPQADTDGEGLQKEVYRHENNNGVDQLDAKEIEKESDGGHSQKESEAEEIDSEKETKLAEIAGMKDLREREKSTKKMSPFFGNLPDRGMNTESEENKDFVKKRESCKQDVIFDSERESVEKPDSYMEGASESQQGIADGFQQPEAIEFSSGEKEDDEVETDQNIRYGRKLIEQGNEKETKPIISKSMAKYDFKCDRLSEIPEEKEGAEDSKGNGIEEQEVEANEENVKVHGGRKEKTEILSDDLTDKAEDHEFSKTEELKLEDVDEEINAENVESKKKTVGDDESVPTGYHSKTEGAERTNDDSSAETIEKKEKANLEERAICEYNENPKGYMLDDADSSSLEILENSETTPSKDMKKTKKIFLFKRVPSINQKIVKNNNEPLPEIKSIGDQIILKSDNKDADQNHMSQNHQNIPPTNTERRSKSCTIL
partner: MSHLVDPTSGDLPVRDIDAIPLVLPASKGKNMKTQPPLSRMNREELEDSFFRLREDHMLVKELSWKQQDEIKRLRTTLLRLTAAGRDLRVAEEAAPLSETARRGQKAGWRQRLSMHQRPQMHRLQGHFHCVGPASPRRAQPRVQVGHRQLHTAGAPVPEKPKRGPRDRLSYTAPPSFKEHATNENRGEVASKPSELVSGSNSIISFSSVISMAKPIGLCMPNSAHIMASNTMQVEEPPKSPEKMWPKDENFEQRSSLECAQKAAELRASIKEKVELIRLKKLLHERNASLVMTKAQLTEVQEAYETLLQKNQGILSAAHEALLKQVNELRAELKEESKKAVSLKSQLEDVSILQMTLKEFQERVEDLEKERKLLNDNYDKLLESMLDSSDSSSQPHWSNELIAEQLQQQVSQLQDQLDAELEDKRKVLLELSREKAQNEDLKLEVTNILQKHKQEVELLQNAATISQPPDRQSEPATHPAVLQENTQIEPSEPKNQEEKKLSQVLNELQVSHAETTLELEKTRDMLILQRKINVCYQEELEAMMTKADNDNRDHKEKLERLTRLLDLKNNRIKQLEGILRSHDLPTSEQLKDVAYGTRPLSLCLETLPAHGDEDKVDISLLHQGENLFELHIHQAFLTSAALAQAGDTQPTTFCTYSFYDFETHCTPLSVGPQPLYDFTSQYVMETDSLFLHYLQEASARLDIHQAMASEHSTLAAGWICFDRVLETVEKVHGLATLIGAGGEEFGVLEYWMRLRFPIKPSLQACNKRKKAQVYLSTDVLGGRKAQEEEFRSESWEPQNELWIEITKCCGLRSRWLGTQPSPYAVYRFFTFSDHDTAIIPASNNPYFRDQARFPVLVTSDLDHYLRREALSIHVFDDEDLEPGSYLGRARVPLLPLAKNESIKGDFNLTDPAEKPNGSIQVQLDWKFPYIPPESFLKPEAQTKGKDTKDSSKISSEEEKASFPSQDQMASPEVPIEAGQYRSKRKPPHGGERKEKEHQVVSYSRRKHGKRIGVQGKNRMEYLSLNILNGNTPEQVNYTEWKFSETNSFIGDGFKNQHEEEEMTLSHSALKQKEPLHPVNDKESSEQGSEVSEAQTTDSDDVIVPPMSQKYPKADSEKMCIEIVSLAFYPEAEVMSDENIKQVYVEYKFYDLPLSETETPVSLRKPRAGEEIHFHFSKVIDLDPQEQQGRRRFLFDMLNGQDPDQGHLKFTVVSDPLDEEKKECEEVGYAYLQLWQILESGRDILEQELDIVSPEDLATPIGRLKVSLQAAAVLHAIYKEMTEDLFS
B2: Probable RNA-binding protein EIF1AD (Homo sapiens), Q8N9N8 (parent)
chain: MSQATKRKHVVKEVLGEHIVPSDQQQIVRVLRTPGNNLHEVETAQGQRFLVSMPSKYRKNIWIKRGDFLIVDPIEEGEKVKAEISFVLCKDHVRSLQKEGFWPEAFSEVAEKHNNRNRQTQPELPAEPQLSGEESSSEDDSDLFVNTNRRQYHESEEESEEEEAA
partner: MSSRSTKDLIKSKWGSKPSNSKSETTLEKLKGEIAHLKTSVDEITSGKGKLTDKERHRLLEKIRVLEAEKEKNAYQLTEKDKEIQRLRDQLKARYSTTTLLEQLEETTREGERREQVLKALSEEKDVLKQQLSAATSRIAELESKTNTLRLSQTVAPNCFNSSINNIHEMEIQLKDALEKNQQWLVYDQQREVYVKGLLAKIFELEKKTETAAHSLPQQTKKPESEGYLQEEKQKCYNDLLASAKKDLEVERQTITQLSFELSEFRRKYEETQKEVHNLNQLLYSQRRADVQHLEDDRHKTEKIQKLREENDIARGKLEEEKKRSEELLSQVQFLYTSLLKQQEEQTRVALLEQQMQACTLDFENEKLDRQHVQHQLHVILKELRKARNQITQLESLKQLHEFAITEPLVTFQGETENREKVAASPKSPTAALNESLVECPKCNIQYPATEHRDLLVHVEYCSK
B3: Keratin, type II cytoskeletal 2 epidermal (Homo sapiens), P35908 (parent)
chain: MSCQISCKSRGRGGGGGGFRGFSSGSAVVSGGSRRSTSSFSCLSRHGGGGGGFGGGGFGSRSLVGLGGTKSISISVAGGGGGFGAAGGFGGRGGGFGGGSSFGGGSGFSGGGFGGGGFGGGRFGGFGGPGGVGGLGGPGGFGPGGYPGGIHEVSVNQSLLQPLNVKVDPEIQNVKAQEREQIKTLNNKFASFIDKVRFLEQQNQVLQTKWELLQQMNVGTRPINLEPIFQGYIDSLKRYLDGLTAERTSQNSELNNMQDLVEDYKKKYEDEINKRTAAENDFVTLKKDVDNAYMIKVELQSKVDLLNQEIEFLKVLYDAEISQIHQSVTDTNVILSMDNSRNLDLDSIIAEVKAQYEEIAQRSKEEAEALYHSKYEELQVTVGRHGDSLKEIKIEISELNRVIQRLQGEIAHVKKQCKNVQDAIADAEQRGEHALKDARNKLNDLEEALQQAKEDLARLLRDYQELMNVKLALDVEIATYRKLLEGEECRMSGDLSSNVTVSVTSSTISSNVASKAAFGGSGGRGSSSGGGYSSGSSSYGSGGRQSGSRGGSGGGGSISGGGYGSGGGSGGRYGSGGGSKGGSISGGGYGSGGGKHSSGGGSRGGSSSGGGYGSGGGGSSSVKGSSGEAFGSSVTFSFR
partner: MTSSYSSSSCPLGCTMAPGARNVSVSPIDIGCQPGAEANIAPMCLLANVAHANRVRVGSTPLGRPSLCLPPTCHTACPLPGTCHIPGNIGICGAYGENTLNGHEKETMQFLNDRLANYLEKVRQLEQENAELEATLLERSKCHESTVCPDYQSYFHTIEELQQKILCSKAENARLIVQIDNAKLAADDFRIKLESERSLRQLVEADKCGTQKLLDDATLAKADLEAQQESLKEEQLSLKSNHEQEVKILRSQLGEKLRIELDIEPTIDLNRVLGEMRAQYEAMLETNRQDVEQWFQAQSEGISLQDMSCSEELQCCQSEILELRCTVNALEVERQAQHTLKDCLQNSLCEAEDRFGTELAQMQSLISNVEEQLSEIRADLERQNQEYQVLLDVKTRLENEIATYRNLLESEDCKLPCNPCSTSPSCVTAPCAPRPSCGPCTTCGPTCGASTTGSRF
B4: 2'-5'-oligoadenylate synthase 1 (Homo sapiens), P00973 (parent)
chain: MMDLRNTPAKSLDKFIEDYLLPDTCFRMQINHAIDIICGFLKERCFRGSSYPVCVSKVVKGGSSGKGTTLRGRSDADLVVFLSPLTTFQDQLNRRGEFIQEIRRQLEACQRERAFSVKFEVQAPRWGNPRALSFVLSSLQLGEGVEFDVLPAFDALGQLTGGYKPNPQIYVKLIEECTDLQKEGEFSTCFTELQRDFLKQRPTKLKSLIRLVKHWYQNCKKKLGKLPPQYALELLTVYAWERGSMKTHFNTAQGFRTVLELVINYQQLCIYWTKYYDFKNPIIEKYLRRQLTKPRPVILDPADPTGNLGGGDPKGWRQLAQEAEAWLNYPCFKNWDGSPVSSWILLAESNSADDETDDPRRYQKYGYIGTHEYPHFSHRPSTLQAASTPQAEEDWTCTIL
B5: Four and a half LIM domains protein 2 (Homo sapiens), Q14192 (parent)
chain: MTERFDCHHCNESLFGKKYILREESPYCVVCFETLFANTCEECGKPIGCDCKDLSYKDRHWHEACFHCSQCRNSLVDKPFAAKEDQLLCTDCYSNEYSSKCQECKKTIMPGTRKMEYKGSSWHETCFICHRCQQPIGTKSFIPKDNQNFCVPCYEKQHAMQCVQCKKPITTGGVTYREQPWHKECFVCTACRKQLSGQRFTARDDFAYCLNCFCDLYAKKCAGCTNPISGLGGTKYISFEERQWHNDCFNCKKCSLSLVGRGFLTERDDILCPDCGKDI
partner: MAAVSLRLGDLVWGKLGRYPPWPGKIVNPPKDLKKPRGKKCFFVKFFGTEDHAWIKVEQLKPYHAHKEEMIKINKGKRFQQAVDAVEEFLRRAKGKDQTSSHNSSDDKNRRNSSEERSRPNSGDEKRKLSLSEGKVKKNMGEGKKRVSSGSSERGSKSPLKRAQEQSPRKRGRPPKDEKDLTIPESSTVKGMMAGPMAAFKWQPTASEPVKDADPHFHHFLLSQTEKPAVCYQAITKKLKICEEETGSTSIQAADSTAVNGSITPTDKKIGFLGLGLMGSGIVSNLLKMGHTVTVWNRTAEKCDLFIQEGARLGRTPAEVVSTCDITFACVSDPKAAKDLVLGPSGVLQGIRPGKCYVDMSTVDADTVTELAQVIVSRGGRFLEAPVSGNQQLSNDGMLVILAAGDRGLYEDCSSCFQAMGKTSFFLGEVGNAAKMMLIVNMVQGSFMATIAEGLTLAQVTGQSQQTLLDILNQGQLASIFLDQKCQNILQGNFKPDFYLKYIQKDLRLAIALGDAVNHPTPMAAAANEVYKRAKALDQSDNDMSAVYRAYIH
B6: Probable RNA-binding protein EIF1AD (Homo sapiens), Q8N9N8 (parent)
chain: B2 chain
partner: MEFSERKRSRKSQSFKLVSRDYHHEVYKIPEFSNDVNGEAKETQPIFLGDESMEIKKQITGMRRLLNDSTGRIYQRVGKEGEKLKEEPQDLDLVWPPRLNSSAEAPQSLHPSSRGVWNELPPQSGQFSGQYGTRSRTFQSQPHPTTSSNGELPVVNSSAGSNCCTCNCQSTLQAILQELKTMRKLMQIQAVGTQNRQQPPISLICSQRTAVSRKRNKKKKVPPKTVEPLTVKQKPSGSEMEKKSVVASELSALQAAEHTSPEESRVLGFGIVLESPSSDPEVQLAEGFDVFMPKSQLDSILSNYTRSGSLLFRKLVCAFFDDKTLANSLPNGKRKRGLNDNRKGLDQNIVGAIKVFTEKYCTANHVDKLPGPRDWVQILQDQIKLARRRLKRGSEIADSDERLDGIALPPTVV
B7: Keratin-associated protein 3-2 (Homo sapiens), Q9BYR7 (parent)
chain: MDCCASRSCSVPTGPATTICSSDKSCRCGVCLPSTCPHTVWLLEPICCDNCPPPCHIPQPCVPTCFLLNSCQPTPGLETLNLTTFTQPCCEPCLPRGC

Variants of: B1
Details: with rpgr1_human RPGRIP1, Q96KN7

Row | effect of a mutation on the interaction | Variant
1 | with no effect | R425K
2 | with no effect | Q456R
3 | with no effect | Q184H

Variants of: B2
Details: with cep55_human CEP55, Q53EZ4

Row | effect of a mutation on the interaction | Variant
4 | with no effect | R48C

Variants of: B3
Details: with krt38_human KRT38, O76015

Row | effect of a mutation on the interaction | Variant
5 | with no effect | A517G

Variants of: B4
Details: with actn1_human ACTN1, P12814
Sequence of actn1_human ACTN1, P12814 (P12814 whole entry): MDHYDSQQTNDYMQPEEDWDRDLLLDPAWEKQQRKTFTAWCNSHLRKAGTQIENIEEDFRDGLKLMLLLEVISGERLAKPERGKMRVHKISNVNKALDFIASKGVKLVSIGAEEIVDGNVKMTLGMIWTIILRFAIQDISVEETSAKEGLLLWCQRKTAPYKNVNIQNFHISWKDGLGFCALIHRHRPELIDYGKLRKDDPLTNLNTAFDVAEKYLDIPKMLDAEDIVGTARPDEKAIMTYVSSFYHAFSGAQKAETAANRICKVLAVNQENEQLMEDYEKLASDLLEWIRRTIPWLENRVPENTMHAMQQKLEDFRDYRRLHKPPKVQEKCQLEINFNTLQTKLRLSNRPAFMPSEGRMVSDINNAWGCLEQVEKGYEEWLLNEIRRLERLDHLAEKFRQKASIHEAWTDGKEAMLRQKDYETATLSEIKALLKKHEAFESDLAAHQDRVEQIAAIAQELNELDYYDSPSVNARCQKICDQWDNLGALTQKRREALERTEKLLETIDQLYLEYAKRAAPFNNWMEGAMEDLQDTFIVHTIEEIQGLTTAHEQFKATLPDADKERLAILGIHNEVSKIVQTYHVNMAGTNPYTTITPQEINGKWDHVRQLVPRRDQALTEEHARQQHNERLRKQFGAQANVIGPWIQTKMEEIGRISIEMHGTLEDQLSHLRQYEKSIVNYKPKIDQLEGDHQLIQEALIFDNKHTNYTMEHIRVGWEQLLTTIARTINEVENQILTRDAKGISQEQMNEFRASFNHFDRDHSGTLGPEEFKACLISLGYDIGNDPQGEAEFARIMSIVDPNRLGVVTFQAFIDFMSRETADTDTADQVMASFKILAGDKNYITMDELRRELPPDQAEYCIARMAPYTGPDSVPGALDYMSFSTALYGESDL

Row | effect of a mutation on the interaction | Variant
6 | disrupting interaction strength | L327P

Variants of: B5
Details: with glyr1_human GLYR1, Q49A26

Row | effect of a mutation on the interaction | Variant
7 | with no effect | A37S
8 | with no effect | N95K

Variants of: B6
Details: with bend7_human BEND7, Q8N7W2

Row | effect of a mutation on the interaction | Variant
9 | with no effect | R48C

Variants of: B7
Details: with yipf3_human YIPF3, Q9GZM5
Sequence of yipf3_human YIPF3, Q9GZM5 (Q9GZM5 whole entry): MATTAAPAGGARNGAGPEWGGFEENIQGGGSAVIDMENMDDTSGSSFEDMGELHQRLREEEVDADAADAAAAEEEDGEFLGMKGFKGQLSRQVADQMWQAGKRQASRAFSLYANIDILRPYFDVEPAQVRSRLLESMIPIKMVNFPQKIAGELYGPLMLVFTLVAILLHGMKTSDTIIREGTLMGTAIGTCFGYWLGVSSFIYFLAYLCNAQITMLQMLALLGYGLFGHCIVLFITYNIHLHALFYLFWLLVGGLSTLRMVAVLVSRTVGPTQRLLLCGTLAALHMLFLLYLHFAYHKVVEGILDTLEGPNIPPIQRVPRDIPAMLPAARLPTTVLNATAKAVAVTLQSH

Row | effect of a mutation on the interaction | Variant
10 | with no effect | R27C

Variants of: B7
Details: with hxa1_human HOXA1, P49639
Sequence of hxa1_human HOXA1, P49639 (P49639 whole entry): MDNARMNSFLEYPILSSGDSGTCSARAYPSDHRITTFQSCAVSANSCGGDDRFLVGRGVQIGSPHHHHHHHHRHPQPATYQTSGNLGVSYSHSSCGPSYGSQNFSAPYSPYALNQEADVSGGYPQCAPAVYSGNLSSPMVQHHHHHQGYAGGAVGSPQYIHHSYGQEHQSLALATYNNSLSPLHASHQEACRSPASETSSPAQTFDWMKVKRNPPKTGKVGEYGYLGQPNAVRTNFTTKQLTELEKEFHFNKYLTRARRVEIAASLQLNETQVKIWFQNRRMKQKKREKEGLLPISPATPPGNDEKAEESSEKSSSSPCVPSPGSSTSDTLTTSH

Row | effect of a mutation on the interaction | Variant
11 | with no effect | R27C

Variants of: B7
Details: with otx1_human OTX1, P32242
Sequence of otx1_human OTX1, P32242 (P32242 whole entry): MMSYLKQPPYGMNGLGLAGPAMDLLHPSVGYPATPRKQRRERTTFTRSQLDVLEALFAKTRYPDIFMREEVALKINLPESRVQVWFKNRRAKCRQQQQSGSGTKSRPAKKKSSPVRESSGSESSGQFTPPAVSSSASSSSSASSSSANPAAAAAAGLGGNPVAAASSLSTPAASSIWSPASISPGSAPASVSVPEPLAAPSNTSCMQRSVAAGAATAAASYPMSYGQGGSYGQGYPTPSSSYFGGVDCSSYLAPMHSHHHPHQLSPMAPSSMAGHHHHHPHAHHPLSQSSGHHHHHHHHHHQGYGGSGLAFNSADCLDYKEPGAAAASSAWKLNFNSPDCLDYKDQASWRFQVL

Row | effect of a mutation on the interaction | Variant
12 | with no effect | R27C

From IntAct's records for PubMed 31515488
